According to patent US20230265198A1 (TWIST BIOSCIENCE, published 2023):

B1: NRP1-229 (antibody, IgG2, V domains shown)
VH: EVQLLESGGGLVQPGGSLRLSCAASGLTFSNFAMSWVRQAPGKGLEWVSAISGRGSSTYYADSVKGRFTISRDNSKNTLYLQMNSLRAEDTAVYYCARVMKMSRRIVGRRHRKGDGMDVWGQGTLVTVSS
VL: DIQMTQSPSSLSASVGDRVTITCRASQAISRSLNWYQQKPGKAPKLLIYGASALQTGVPSRFSGSGSGTDFTLTISSLQPEDFATYYCQQSYRPPFTFGGGTKVEIK
B2: NRP1-252 (antibody, IgG2, V domains shown)
VH: EVQLLESGGGLVQPGGSLRLSCAASGFTFRSLAVSWVRQAPGKGLEWVSTITGSGGATYYADSVKGRFTISRDNSKNTLYLQMNSLRAEDTAVYYCARGRRGMPTPDTVRKMSKSHLYFDSWGQGTLVTVSS
VL: DIQMTQSPSSLSASVGDRVTITCRARQSISTYLNWYQQKPGKAPKLLIYSASTLESGVPSRFSGSGSGTDFTLTISSLQPEDFATYYCQQSYRTPWTFGGGTKVEIK
B3: NRP1-254 (antibody, IgG2, V domains shown)
VH: EVQLLESGGGLVQPGGSLRLSCAASGFTFNTHAMSWVRQAPGKGLEWVSTISGSGGYTYYADSVKGRFTISRDNSKNTLYLQMNSLRAEDTAVYYCAKDLAAAGDYWGQGTLVTVSS
VL: DIQMTQSPSSLSASVGDRVTITCRASQRISTYLNWYQQKPGKAPKLLIYAASHLQSGVPSRFSGSGSGTDFTLTISSLQPEDFATYYCQQSHTTPLTFGGGTKVEIK
B4: NRP1-276 (antibody, IgG2, V domains shown)
VH: EVQLLESGGGLVQPGGSLRLSCAASGFPFTSYAMSWVRQAPGKGLEWVSAISSSGTGTYYADSVKGRFTISRDNSKNTLYLQMNSLRAEDTAVYYCARLKRGGTNLVRKATRYQFYGMDAWGQGTLVTVSS
VL: DIQMTQSPSSLSASVGDRVTITCRASQSVSRYLNWYQQKPGKAPKLLIYGASTLQAGVPSRFSGSGSGTDFTLTISSLQPEDFATYYCQQSYTTPLTFGGGTKVEIK
B5: NRP1-244 (antibody, IgG2, V domains shown)
VH: EVQLLESGGGLVQPGGSLRLSCAASGFTFTSYGMSWVRQAPGKGLEWVSTISGSGGYTYYADSVKGRFTISRDNSKNTLYLQMNSLRAEDAAVYYCALWNRYGGLSYWGQGTLVTVSS
VL: DIQMTQSPSSLSASVGDRVTITCRASQSIATYLHWYQQKPGKAPKLLIYGTSNLQSGVPSRFSGSGSGTDFTLTISSLQPEDFATYYCQQSYRTPGTFGGGTKVEIK
B6: NRP1-265 (antibody, IgG2, V domains shown)
VH: EVQLLESGGGLVQPGGSLRLSCAASGFTFGKYAMTWVRQAPGKGLEWVSGISGSGGRTNYADSVKGRFTISRDNSKNTLYLQMNSLRAEDTAVYYCARDFVAWRGGFRRYYSYNGMDVWGQGTLVTVSS
VL: DIQMTQSPSSLSASVGDRVTITCRASQYVSTYLNWYQQKPGKAPKLLIYGTSRLQSGVPSRFSGSGSGTDFTLTISSLQPEDFATYYCQQSYSTPKTFGGGTKVEIK
B7: NRP1-264 (antibody, IgG2, V domains shown)
VH: EVQLLESGGGLVQPGGSLRLSCAASGFTFRGYAMSWVRQAPGKGLEWVSTISGSGGVTYYADSVKGRFTISRDNSKNTLYLQMNSLRAEDTAVYYCARVRVDARPRGMMSRYYGMDVWGQGTLVTVSS
VL: DIQMTQSPSSLSASVGDRVTITCRASQSISNRLNWYQQKPGKAPKLLIYGASSLQPGVPSRFSGSGSGTDFTLTISSLQPEDFATYYCQQSFNTPRTFGGGTKVEIK
B8: NRP1-268 (antibody, IgG2, V domains shown)
VH: EVQLLESGGGLVQPGGSLRLSCAASGFIFSTYALSWVRQAPGKGLEWVSGINGSGASTYYADSVKGRFTISRDNSKNTLYLQMNSLRAEDTAVYYCAREGQGWTSLLPRPSQRRPQRRPPYYGLDVWGQGTLVTVSS
VL: DIQMTQSPSSLSASVGDRVTITCRGSQSITRFLNWYQQKPGKAPKLLIYATSRLQSGVPSRFSGSGSGTDFTLTISSLQPEDFATYYCQQSHSFPRTFGGGTKVEIK
B9: NRP1-258 (antibody, IgG2, V domains shown)
VH: EVQLLESGGGLVQPGGSLRLSCAASGFRFGNYAMSWVRQAPGKGLEWVSAISGSAGRTYYADSVKGRFTISRDNSKNTLYLQMNSLRAEDTAVYYCARAPFQSRIGLAGTRRHKRDNFDQWGQGTLVTVSS
VL: DIQMTQSPSSLSASVGDRVTITCRASQSIDNFLNWYQQKPGKAPKLLIYGASKLQRGVPSRFSGSGSGTDFTLTISSLQPEDFATYYCQQSYSSPPVTFGGGTKVEIK
B10: NRP1-257 (antibody, IgG2, V domains shown)
VH: EVQLLESGGGLVQPGGSLRLSCAASGFTFSRYGMSWVRQAPGKGLEWVSTISGSGGSTSYADSVKGRFTISRDNSKNTLYLQMNSLRAEDTAVYYCARASHVDIPRRAPKRRHSFDSWGQGTLVTVSS
VL: DIQMTQSPSSLSASVGDRVTITCRASQTISNYVNWYQQKPGKAPKLLIYAASSLHAGVPSRFSGSGSGTDFTLTISSLQPEDFATYYCQQGYSTPLTFGGGTKVEIK
B11: NRP1-232 (antibody, IgG2, V domains shown)
VH: EVQLLESGGGLVQPGGSLRLSCAASGFTFTNYAMNWVRQAPGKGLEWVSSISGSGGRTDYADSVKGRFTISRDNSKNTLYLQMNSLRAEDTAVYYCARLKRGGTNLVRKATRYQFYGMDAWGQGTLVTVSS
VL: DIQMTQSPSSLSASVGDRVTITCRASQNIAKYLNWYQQKPGKAPKLLIYSASNLQSGVPSRFSGSGSGTDFTLTISSLQPEDFATYYCQQNYKTPYTFGGGTKVEIK
B12: NRP1-235 (antibody, IgG2, V domains shown)
VH: EVQLLESGGGLVQPGGSLRLSCAASGFTFPNYAMTWVRQAPGKGLEWVSGISGSGGRIYYADSVKGRFTISRDNSKNTLYLQMNSLGAEDTAVYYCARARKFRELLRRNNYSNHYYMDVWGQGTLVTVSS
VL: DIQMTQSPSSLSASVGDRVTITCRTSQSIGNYLNWYQQKPGKAPKLLIYGASKLQSGVPSRFSGSGSGTDFTLTISSLQPEDFATYYCQQGYSTPRTFGGGTKVEIK
B13: NRP1-239 (antibody, IgG2, V domains shown)
VH: EVQLLESGGGLVQPGGSLRLSCAASGFPFSNYTMGWVRQAPGKGLEWVSAISASGGSPYYADSVNGRFTISRDNSKNTLYLQMNSLRAEDTAVYYCARVGPGRSIAARQGFKRRNNWFDPWGQGTLVTVSS
VL: DIQMTQSPSSLSTSVGDRVTITCRASQNIGSHLNWYQQKPGKAPKLLIYATSSLRSGVPSRFSGSGSGTDFTLTISSLQPEDFATYYCQQSYRIPLTFGGGTKVEIK
B14: NRP1-248 (antibody, IgG2, V domains shown)
VH: EVQLLESGGGLVQPGGSLRLSCAASGFTFSKYAMSWVRQAPGKGLEWVSSISTSGGSTYYADSVKGRFTISRDNSKNTLYLQMNSLRAEDTAVYYCARGLLRLKPERRVRTTYYYGMDVWGQGTLVTVSS
VL: DIQMTQSPSSLSASVGDRVTITCRTSQSIGSYLNWYQQKPGKAPKLLIYASSSLQSGVPSRFSGSGSGTDFTLTISSLQPEDFATYYCQQSYSTPFSFGGGTKVEIK
B15: NRP1-225 (antibody, IgG2, V domains shown)
VH: EVQLLESGGGLVQPGGSLRLSCAASGFMFSRYAMSWVRQAPGKGLEWVSAISGSGDTTHYADSVKGRFTISRDNSKNTLYLQMNSLRAEDTAVYYCARGGRGLRLQVPIVRHARKGKDYYMDVWGQGTLVTVSS
VL: DIQMTQSPSSLSASVGDRVTITCRASQSIGSHLSWYQQKPGKAPKLLIYRASSLQTGVPSRFSGSGSGTDFTLTISSLQPEDFATYYCLQTYSVPLTFGGGTKVEIK
B16: NRP1-227 (antibody, IgG2, V domains shown)
VH: EVQLLESGGGLVQPGGSLRLSCAASGFTLRNYAMSWVRQAPGKGLEWVSALSSSGGSTYYADSVKGRFTISRDNSKNTLYLQMNSLRAEDTAVYYCARGGRGLRLQVPIVRHARKGKDYYMDVWGQGTLVTVSS
VL: DIQMTQSPSSLSASVGDRVTITCRPSQSVTTYLNWYQQKPGKAPKLLIYGSSTLQSGVPSRFSGSGSGTDFTLTISSLQPEDFATYYCQQSYTFPRTFGGGTKVEIK
B17: NRP1-238 (antibody, IgG2, V domains shown)
VH: EVQLLESGGGLVQPGGSLRLSCAASGFSFSNYGMSWVRQAPGKGLEWVSSISHSGGSTYYADSVKGRFTISRDNSKNTLYLQMNSLRAEDTAVYYCARVGPGRSIAARQGFKRRNNWFDPWGQGTLVTVSS
VL: DIQMTQSPSSLSASVGDRVTITCRASQSISSQLNWYQQKPGKAPKLLIYRASRLQSGVPSRFSGSGSGTDFTLTISSLQPEDFATYYCQQSYSTPRSFGGGTKVEIK
B18: NRP1-270 (antibody, IgG2, V domains shown)
VH: EVQLLESGGGLVQPGGSLRLSCAASGFTFSIYAMGWVRQAPGKGLEWVSSISGRGGSIYYADSVKGRFTISRDNSKNTLYLQMNSLRAEDTAVYYCARSAGTFDYWGQGTLVTVSS
VL: DIQMTQSPSSLSASVGDRVTITCRASQSIRSHLNWYQQKPGKAPKLLIYAASSVESGVPSRFSGSGSGTDFTLTISSLQPEDFATYYCQQSYSAPLTFGGGTKVEIK
B19: NRP1-228 (antibody, IgG2, V domains shown)
VH: EVQLLESGGGLVQPGGSLRLSCAASGFSFSTHAMTWVRQAPGKGLEWVSTISGLGTGTYYADSVKGRFTISRDNSKNTLYLQMNSLRAEDTAVYYCARSTRGGFDYWGQGTLVTVSS
VL: DIQMTQSPSSLSASVGDRVTITCRAGQSIRSYLNWYQQKPGKAPKLLIYAASTLQRGVPSRFSGSGSGTDFTLTISSLQPEDFATYYCQQTYTTPLTFGGGTKVEIK
B20: NRP1-274 (antibody, IgG2, V domains shown)
VH: EVQLLESGGGLVQPGGSLRLSCAASGFTFSKYAMNWVRQAPGKGLEWVSTISGSGGSTSYADSVKGRFTISRDNSKNTLYLQMNSLRAEDTAVYYCARGQDIKRNVMRRGGRLNWFDPWGQGTLVTVSS
VL: DIQMTQSPSSLSASVGDRVTITCRASQSIGSNLNWYQQKPGKAPKLLIYGATNLQSGVPSRFSGSGSGTDFTLTISSLQPEDFATYYCQQSYRTPLTFGGGTKVEIK

Target: T1, neuropilin-1 (NRP1) on HEK293 cells overexpressing NRP1 (UniProt O14786 22-923, limits assumed)
T1 construct: whole, on cells
Experiment: flow cytometry, HEK293-NRP1 vs HEK293

In order of falling “100 nM FACS (MFI Ratio)” value:
1. B14  5
2. B7  3
3. B18  3
4. B19  3
5. B3  2.8
6. B4  2.6
7. B16  2.6
8. B6  2.5
9. B5  2.1
10. B8  2.1
11. B11  1.3
12. B1  1.2
13. B15  1.1
14. B2  1
15. B20  1
16. B10  0.9
17. B17  0.9
18. B12  0.8
19. B9  0.7
20. B13  0.2
